Results published in patent publication US20200262927A1 (OXFORD BIOTHERAPEUTICS, published 2020).

What was measured:
[1] = molecular target: T1, Recombinant hCRTAM/Fc Chimera (R&D Systems, Catalogue 1695-CR) (human, UniProt O95727 18-286); experiment: Octet BLI, antibody captured on anti-human IgG Fc biosensors, hCRTAM/Fc chimera as analyte from 200 nM diluted 1:3, global 1:1 fit
T1 construct: also called human recombinant hCRTAM/Fc chimera; Fc part of the bought chimera not given
T1 sequence: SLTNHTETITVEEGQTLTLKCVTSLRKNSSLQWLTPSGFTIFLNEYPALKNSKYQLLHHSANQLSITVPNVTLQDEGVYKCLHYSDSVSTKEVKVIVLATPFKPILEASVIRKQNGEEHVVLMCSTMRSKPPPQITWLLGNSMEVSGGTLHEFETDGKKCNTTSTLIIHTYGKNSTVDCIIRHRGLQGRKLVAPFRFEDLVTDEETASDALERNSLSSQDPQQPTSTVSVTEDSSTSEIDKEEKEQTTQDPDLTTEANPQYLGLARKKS
Experimental: (§1) Anti-human IgG-Fc Capture (AHC) ForteBio biosensors were loaded with the test antibodies at a concentration of 1 μg/mL over 300 seconds.
(§2) The loaded biosensors were incubated with 5 concentrations of human recombinant hCRTAM/Fc chimera starting at 200 nM, which was serially diluted 1:3; a reference well contained kinetic buffer only (to correct for drift).
(§3) The data from all concentrations were fit using a global 1:1 curve fit for each sample. Where possible the kinetic association and dissociation rates and the KD values were determined.

[2] = molecular target: T1, Recombinant hCRTAM/Fc Chimera (R&D …); experiment: Octet BLI, antibody captured on anti-human IgG Fc biosensors, hCRTAM/Fc chimera as analyte, global 1:1 fit
Experimental: as §1, §2, §3

B1: humanised 5A11 antibody (antibody, V domains shown)
VH: EVQLVESGGGLVQPGGSLKLSCAASGFTFSDAAMYWVRQASGKGLEWVARIRTKTNNYAAHYVESVKGRFTVSRDDSKNTVYLQMNSLKTEDTAMYYCTSVPQGTQDYWGQGTLVTVSS
VL: SYELTQPSSVSVSPGQTARITCSGDVLSKRYAQWSQQKPGQAIVSVIYKDSERPSGIPERFSGSSSGTTATLTISGAQVEDEADYYCLSTYADDNLPVFGGGTKLTVL
notes: Captured on anti-human IgG Fc biosensors, so it carried a human IgG Fc; also called humanized antibody 5A11
Kd [1]: 0.439 nM
koff [2]: 0.00011 s⁻¹
kon [2]: 249000 M⁻¹ s⁻¹
